Results from publication PMC11952320.

Legend:
Test in all cases: co-IP
[1] = molecular target: human GABAA receptor β2 subunit, epilepsy-associated variant I299S (human) (UniProt P47870)
[2] = molecular target: human GABAA receptor β2 subunit, epilepsy-associated variant R240T (human) (UniProt P47870)
[3] = molecular target: human GABAA receptor β2 subunit, variant Q209F210delinsH (human) (UniProt P47870)
[4] = molecular target: human GABAA receptor β2 subunit, epilepsy-associated variant I246T (human) (UniProt P47870)

percent reduction of the ratio of α1 to β2 after co-IP, against WT [1]: 30%
percent reduction of the ratio of α1 to β2 after co-IP, against WT [2]: 80%
percent reduction of the ratio of α1 to β2 after co-IP, against WT [3]: 75%
percent reduction of the ratio of α1 to β2 after co-IP, against WT [4]: 30%
Substance: human GABAA receptor α1 subunit (GABRA1)
